Numbering of substitutions follows the chain as printed.

In test [1] the target is T1, USP1(S313D) (human, UniProt O94782 1-785, G670A | G671A | S313D).
T1 sequence (looked up): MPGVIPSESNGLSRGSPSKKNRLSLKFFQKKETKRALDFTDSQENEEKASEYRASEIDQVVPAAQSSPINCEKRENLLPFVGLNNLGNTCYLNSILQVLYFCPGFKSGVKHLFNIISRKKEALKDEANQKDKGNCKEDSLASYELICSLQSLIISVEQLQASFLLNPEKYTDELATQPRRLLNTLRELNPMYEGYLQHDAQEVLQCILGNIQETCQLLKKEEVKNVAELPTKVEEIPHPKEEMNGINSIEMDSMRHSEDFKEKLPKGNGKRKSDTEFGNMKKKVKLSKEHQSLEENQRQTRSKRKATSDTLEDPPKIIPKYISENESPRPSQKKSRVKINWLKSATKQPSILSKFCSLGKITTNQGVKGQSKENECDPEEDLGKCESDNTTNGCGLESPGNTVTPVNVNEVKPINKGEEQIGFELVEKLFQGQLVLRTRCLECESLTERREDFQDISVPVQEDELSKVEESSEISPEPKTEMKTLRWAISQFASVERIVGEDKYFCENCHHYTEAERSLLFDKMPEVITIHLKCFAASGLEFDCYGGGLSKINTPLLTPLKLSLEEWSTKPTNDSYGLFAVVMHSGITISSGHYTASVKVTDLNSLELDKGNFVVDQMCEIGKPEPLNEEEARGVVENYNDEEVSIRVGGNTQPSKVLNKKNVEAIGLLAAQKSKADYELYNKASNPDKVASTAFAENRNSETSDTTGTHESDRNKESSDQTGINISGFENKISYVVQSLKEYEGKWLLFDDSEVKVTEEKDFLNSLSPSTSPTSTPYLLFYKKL
Kind of test: cell-based or functional assay.

Test [2] concerns the target T2, USP1(S313A) (human, UniProt O94782 1-785, G670A | G671A | S313A).
T2 sequence (looked up): T1 sequence (looked up) with D313A
Kind of test: cell-based or functional assay.

B1: UAF1 (USP1-associated factor 1), six-His-tagged, N-terminally HA-tagged (natural protein)
chain: not shown
With B1, the “kcat/Km of the copurified USP1(S313D)/UAF1 complex on Ub-AMC” value in test [1] was 250000 M⁻¹ s⁻¹. The “kcat/Km of USP1(S313A) purified together with His-tagged UAF1, on Ub-AMC” value in test [2] stood at 1100 M⁻¹ s⁻¹.

The values above are taken from PMC3617561 (Biochemistry, 2012).
